Measured values as given in patent publication US8540999B2, “Allergenic proteins and peptides from Japanese cedar pollen” (Merck Patent GmbH, priority 1991, dated 2013).

Tests used:
allergic patient IgE [1] = assay: Competition ELISA, wells coated with Japanese cedar pollen SPE; assay type: binding, human
Method: In the competition assay, ELISA wells were coated with Japanese cedar pollen SPE and then allergic patient IgE binding was measured in the presence of competing purified native Cry j I in solution. The source of allergic IgE in these assays was either the pool of plasma from 15 patients (denoted PHP) or seven individual plasma samples from patients with a Japanese cedar MAST score of 2.5 or greater. The competition assay using the pooled human plasma samples compares the competitive binding capacity of purified native Cry j I to Japanese cedar pollen SPE and an irrelevant allergen source, rye grass SPE. […] This assay was repeated with individual patients as a measure of the range of the IgE response within the allergic population.

allergic patient IgE [2] = assay: Direct ELISA, IgE binding to rCry j I and Cry j I peptides (Example 8); design: species or system human; settings: PHP (15 patients), FIG. 15
Method: The recombinant Cry j I protein (rCry j I), expressed in bacteria and then purified (as described in Example 5), has been examined for IgE reactivity. The first method applied to this examination was direct ELISA where wells were coated with the recombinant Cry j I and IgE binding was assayed on individual patients. FIG. 9 is the graphic representation of this direct ELISA.
To analyze IgE reactivity to selected Cry j I peptides a direct ELISA format was used. ELSIA wells were coated with 25 peptides derived from Cry j I and assayed for IgE binding. FIG. 15a and 15b are graphs of these binding results using PHP (15 patients) as the cedar pollen allergic IgE source. This pool of plasma was formulated for enrichment of IgE that could bind to denatured SPE (as determined by direct ELISA) and therefore increase the chance of reactivity toward the peptides.

[3] = test system: Cry j allergic patient plasma IgE; assay: Cry j I peptide screen, direct ELISA for IgE binding (Example 12); design: species or system human; settings: plasma pools PHP-A and PHP-D, FIGS. 22 and 23
Source text: To analyze IgE reactivity to the selected peptides discussed in example 11 and shown in FIG. 20, a direct ELISA format was used. ELISA wells were coated with the selected peptides derived from Cry j I and then assayed for IgE binding. FIGS. 22 and 23 are graphs of these binding results using two different pools of Cry j allergic patient plasma. Patient plasma pool A (denoted PHP-A) (FIG. 22) was formulated by mixing equal volumes of plasma from 22 patients that were all shown to be positive for direct IgE binding to native purified Cry j I by ELISA. The second pool (PHP-D) (FIG. 23) was formulated by the combination of equal plasma volumes from 8 patients that had IgE binding by direct ELISA to both native and denatured purified Cry j I. This pool was generated to increase the chance of detecting reactivity towards peptides. […] There was no detectable IgE binding reactivity to any of the peptides at any of the plasma concentrations used. To control for the presence of peptide coating the wells, mouse polyclonal antisera was generated to the peptides. […] The results of these assays are shown in FIG. 24, and indicate that peptides were coating the wells.

Cry j I reactive T cells = assay: T cell proliferation assay, Cry j I primed T cell lines, modified peptides (Example 11); assay type: cell-based, human; settings: panel of thirty-nine patients, FIG. 21
Method: Long term T cell lines were established by stimulation of 2×10^6 PBL/ml in bulk cultures of complete medium (RPMI-1640, 2 mM L-glutamine, 100 U/ml penicillin/streptomycin, 5×10^−5M 2-mercaptoethanol, and 10 mM HEPES supplemented with 5% heat inactivated human AB serum) with 20 μg/ml of partially purified native Cry j I (75% purity containing three bands similar to the three bands in FIG. 2) for 6 days at 37° C. in a humidified 5% CO2 incubator to select for Cry j I reactive T cells. This amount of priming antigen was determined to be optimal for the activation of T cells from most cedar pollen allergic patients. Viable cells were purified by LSM centrifugation and cultured in complete medium supplemented with 5 units recombinant human IL-2/ml and 5 units recombinant human IL4/ml for up to three weeks until the cells no longer responded to lymphokines and were considered “rested”. The ability of the T cells to proliferate to selected Cry j I peptides, partially purified Cry j I, affinity purified Cry j I, or positive (PHA) controls or negative controls (medium only) was then assessed. […]
The maximum response in a titration of each peptide is expressed as the stimulation index (S.I.). […]

B1: purified native Cry j I: major allergen of Japanese cedar pollen, biochemically purified in the native form (protein)
chain: DNPIDSCWRGDSNWAQNRMKLADCAVGFGSSTMGGKGGDLYTVTNSDDDPVNPAPGTLRYGATRDRPLWIIFSGNMNIKLKMPMYIAGYKTFDGRGAQVYIGNGGPCVFIKRVSNVIIHGLYLYGCSTSVLGNVLINESFGVEPVHPQDGDALTLRTATNIWIDHNSFSNSSDGLVDVTLTSTGVTISNNLFFNHHKVMLLGHDDAYSDDKSMKVTVAFNQFGPNCGQRMPRARYGLVHVANNNYDPWTIYAIGGSSNPTILSEGNSFTAPNESYKKQVTIRIGCKTSSSCSNWVWQSTQDVFYNGAYFVSSGKYEGGNIYTKKEAFNVENGNATPQLTKNAGVLTCSLSKRC
competition for IgE binding to coated Japanese cedar pollen SPE (allergic patient IgE [1]; pooled human plasma (PHP), 15 patients, FIG. 6): competes very well
competition for IgE binding to coated Japanese cedar pollen SPE (allergic patient IgE [1]; seven individual patients, FIG. 7): could be competed
IgE binding, direct ELISA (allergic patient IgE [2]): only specific IgE detected
IgE binding, direct ELISA [3]: direct binding
T cell line response (Cry j I reactive T cells): All but one of the thirty-nine T cell lines responded
